Measured values reported in patent US20200040086A1 (BERLIN CHEMIE, published 2020).

How the values were obtained:
[1] = molecular target: T1, LY75 (DEC-205) on COLO205 cells (human, UniProt O60449 28-1722); assay: competitive FACS on COLO205 cells
T1 construct: also called Lymphocyte antigen 75
Procedure: COLO205 cells (ATCC, catalog # CCL-222) were detached from tissue culture flasks with Cell Stripper (Cellgro, catalog # MT-25-056CI). Cells were washed and resuspended in FACS buffer (PBS+2% FBS), neutralized with growth media, and counted. Cells were plated at 50,000 cells per well in a V Bottom 96-well plate. Cells were washed once with FACS buffer (PBS (Fisher, catalog # SH30028-03)+2% FBS). An anti-LY75-mAb (Selected from Example 1) or LY75_A1 was added to wells starting at 250 nM and diluted serially 3 fold and applied to the relevant wells for 45 minutes on ice. Test wells that required single or multiple staining steps were left in FACS buffer as appropriate to ensure the final staining was completed simultaneously for all conditions tested. Two wells were left unstained in FACS buffer as controls.
After the incubation with blocking antibody, cells were washed twice in FACS buffer. The cells were resuspended in FACS buffer containing the anti-LY75-mAb conjugated to MCC-DM1 (1 nM) and incubated on ice for 45 minutes. The cells were washed as above and resuspended in FACS buffer plus 1 ug/ml mouse anti-maytansine antibody and incubated in ice for 45 minutes. […] Mean fluorescence intensity of each sample was determined using a Guava EasyCyte Plus HT Flow Cytometer (96 well plate formats) and the raw data was analyzed using the Guava Cytosoft.

RHFVSLCQ = molecular target: T2, RHFVSLCQ; assay: peptide microarray of 8mer LY75 peptides
T2 construct: 8mer of LY75 on the peptide microarray, chart Region 6
T2 peptide: RHFVSLCQ

SLCQKYSE = molecular target: T3, SLCQKYSE; assay: peptide microarray of 8mer LY75 peptides
T3 construct: 8mer of LY75 on the peptide microarray, chart Region 6
T3 peptide: SLCQKYSE

LCQKYSEV = molecular target: T4, LCQKYSEV; assay: peptide microarray of 8mer LY75 peptides
T4 construct: 8mer of LY75 on the peptide microarray, chart Region 6
T4 peptide: LCQKYSEV

CQKYSEVK = molecular target: T5, CQKYSEVK; assay: peptide microarray of 8mer LY75 peptides
T5 construct: 8mer of LY75 on the peptide microarray, chart Region 6
T5 peptide: CQKYSEVK

QKYSEVKS = molecular target: T6, QKYSEVKS; assay: peptide microarray of 8mer LY75 peptides
T6 construct: 8mer of LY75 on the peptide microarray, chart Region 6
T6 peptide: QKYSEVKS

NLYKIIPK = molecular target: T7, NLYKIIPK; assay: peptide microarray of 8mer LY75 peptides
T7 construct: 8mer of LY75 on the peptide microarray, chart Region 7
T7 peptide: NLYKIIPK

KIIPKTLT = molecular target: T8, KIIPKTLT; assay: peptide microarray of 8mer LY75 peptides
T8 construct: 8mer of LY75 on the peptide microarray, chart Region 7
T8 peptide: KIIPKTLT

IIPKTLTW = molecular target: T9, IIPKTLTW; assay: peptide microarray of 8mer LY75 peptides
T9 construct: 8mer of LY75 on the peptide microarray, chart Region 7
T9 peptide: IIPKTLTW

PKTLTWHS = molecular target: T10, PKTLTWHS; assay: peptide microarray of 8mer LY75 peptides
T10 construct: 8mer of LY75 on the peptide microarray, chart Region 7
T10 peptide: PKTLTWHS

KTLTWHSA = molecular target: T11, KTLTWHSA; assay: peptide microarray of 8mer LY75 peptides
T11 construct: 8mer of LY75 on the peptide microarray, chart Region 7
T11 peptide: KTLTWHSA

[2] = molecular target: Contiguous 8mer peptides of LY75 protein spanning residues 216 to 1666 of the full length LY75 protein; assay: peptide microarray, 1 ug/mL LY75_A1, anti-human IgG Alexa 647
[3] = molecular target: T12, LY75 Region 4 (aa883-901) (human); assay: peptide microarray; signal above the cut off of 3000
T12 construct: Region made up of overlapping 8mers on the array
T12 peptide: DDHFTYSRYPWHRFPVTFG

[4] = molecular target: T13, LY75 Region 5 (aa1029-1040) (human); assay: as above
T13 construct: Region made up of overlapping 8mers on the array
T13 peptide: RELTYSNFHPLL

[5] = molecular target: T14, LY75 Region 6 (aa1077-1093) (human); assay: as above
T14 construct: Region made up of overlapping 8mers on the array
T14 peptide: FTSCSERHFVSLCQKYS

[6] = molecular target: T15, LY75 Region 7 (aa1107-1118) (human); assay: as above
T15 construct: Region made up of overlapping 8mers on the array
T15 peptide: TVKYLNNLYKII

[7] = molecular target: T16, LY75 Region 3 (aa761-780) (human); assay: as above
T16 construct: Region made up of overlapping 8mers on the array
T16 peptide: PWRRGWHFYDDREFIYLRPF

[8] = molecular target: Contiguous 8mer peptides of LY75 protein spanning residues 216 to 1666 of the full length LY75 protein; assay: peptide microarray, 1 ug/mL LY75_A1, anti-human IgG Alexa 647; the peptide is not named
YFHQHSIL = molecular target: T17, YFHQHSIL; assay: peptide microarray of 8mer LY75 peptides, LY75_A1 at 1 µg/mL, anti-human IgG Alexa 647
T17 construct: 8mer of LY75 on the peptide microarray, chart Region 8
T17 peptide: YFHQHSIL
Procedure: (§1) The peptide microarray analysis was performed by LC Sciences, Houston Tex., in brief the method comprised the following steps:—Contiguous 8mer peptides of LY75 protein having […] spanning residues 216 to 1666 of the full length LY75 protein were synthesized and immobilized on a microarray chip. The chip comprised three panels such that the experiment was performed in triplicate. The microarray was addressed with LY75_A1 to identify the peptides to which the antibody bound. The binding assay was performed under the following conditions:—
(§2) The microarray comprising the contiguous peptides in triplicate was washed with 1 mL of binding buffer at 4° C. for 20 min. It was then incubated with 1 μg/mL LY75_A1 in binding buffer (pH 7.0) at 4° C. for 2 hrs. The array was again washed with 0.5 mL of washing buffer at 4° C. for 30 min then incubated with 25 ng/mL anti-human IgG Alexa 647 conjugate in binding buffer (pH 7.0) at 4° C. for 1 hr. The array was again washed with 0.5 mL of washing buffer at 4° C. for 30 min.

KGHCYKSD = molecular target: T18, KGHCYKSD; assay: as above
T18 construct: 8mer of LY75 on the peptide microarray, chart Region 10
T18 peptide: KGHCYKSD
Procedure: as §1, §2

[9] = molecular target: T19, LY75 tryptic peptide GWHFYDDR (765-772) (human); assay: peptide microarray of 8mer LY75 peptides (array peptide with the letters of m17), LY75_A1 at 1 µg/mL, anti-human IgG Alexa 647
T19 construct: Tryptic peptide of recombinant LY75 identified by mass spectrometry after pull down
T19 peptide: GWHFYDDR
Procedure: as §1, §2

T1 sequence (O60449 28-1722 limits assumed): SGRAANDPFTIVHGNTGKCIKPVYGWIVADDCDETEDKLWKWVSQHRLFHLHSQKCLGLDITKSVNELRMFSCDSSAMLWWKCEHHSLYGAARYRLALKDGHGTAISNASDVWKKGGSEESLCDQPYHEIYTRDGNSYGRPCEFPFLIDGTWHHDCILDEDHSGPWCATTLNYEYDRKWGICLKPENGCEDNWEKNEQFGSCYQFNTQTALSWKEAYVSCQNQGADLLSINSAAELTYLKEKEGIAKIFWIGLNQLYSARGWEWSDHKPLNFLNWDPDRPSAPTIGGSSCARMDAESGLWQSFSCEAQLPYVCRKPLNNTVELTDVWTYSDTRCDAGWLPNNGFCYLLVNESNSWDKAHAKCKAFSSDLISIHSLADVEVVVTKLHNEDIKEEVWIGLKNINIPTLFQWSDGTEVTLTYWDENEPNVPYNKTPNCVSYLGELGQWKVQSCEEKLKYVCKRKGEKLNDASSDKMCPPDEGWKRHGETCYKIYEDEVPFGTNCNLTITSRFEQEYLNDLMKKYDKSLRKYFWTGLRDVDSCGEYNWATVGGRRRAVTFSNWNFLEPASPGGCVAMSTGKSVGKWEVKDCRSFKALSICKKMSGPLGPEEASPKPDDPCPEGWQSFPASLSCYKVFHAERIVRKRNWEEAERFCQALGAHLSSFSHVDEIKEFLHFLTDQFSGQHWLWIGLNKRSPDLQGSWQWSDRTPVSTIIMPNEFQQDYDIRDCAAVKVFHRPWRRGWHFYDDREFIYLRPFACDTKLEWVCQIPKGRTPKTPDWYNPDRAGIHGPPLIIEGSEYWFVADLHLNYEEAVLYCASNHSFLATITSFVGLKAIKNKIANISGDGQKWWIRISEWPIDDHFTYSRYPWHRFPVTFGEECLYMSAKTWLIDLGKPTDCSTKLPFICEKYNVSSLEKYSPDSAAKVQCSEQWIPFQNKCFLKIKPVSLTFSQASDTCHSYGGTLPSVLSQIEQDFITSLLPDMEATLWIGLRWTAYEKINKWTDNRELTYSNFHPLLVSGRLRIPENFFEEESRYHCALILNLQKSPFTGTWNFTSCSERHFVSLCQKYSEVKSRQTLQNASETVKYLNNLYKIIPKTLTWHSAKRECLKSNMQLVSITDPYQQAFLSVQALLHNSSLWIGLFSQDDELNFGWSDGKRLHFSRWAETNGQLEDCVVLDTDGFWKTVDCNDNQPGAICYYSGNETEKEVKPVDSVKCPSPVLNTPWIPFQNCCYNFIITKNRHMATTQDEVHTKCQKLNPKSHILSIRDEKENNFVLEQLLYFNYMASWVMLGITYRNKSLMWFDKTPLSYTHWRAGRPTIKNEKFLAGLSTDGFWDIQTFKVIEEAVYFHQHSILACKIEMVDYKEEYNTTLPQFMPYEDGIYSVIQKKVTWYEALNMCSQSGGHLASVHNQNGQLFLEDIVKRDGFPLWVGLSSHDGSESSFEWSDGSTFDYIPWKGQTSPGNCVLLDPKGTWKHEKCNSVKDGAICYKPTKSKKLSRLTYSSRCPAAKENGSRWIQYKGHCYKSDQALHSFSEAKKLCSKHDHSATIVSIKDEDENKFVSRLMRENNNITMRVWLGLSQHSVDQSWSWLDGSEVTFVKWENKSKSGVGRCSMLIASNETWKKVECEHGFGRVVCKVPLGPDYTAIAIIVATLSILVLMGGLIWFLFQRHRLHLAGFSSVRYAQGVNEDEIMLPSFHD

B1: LY75_A1 (antibody, V domains shown)
VH: EVQLVESGGGLVKPGGSLRLSCAASGFTYSNAWMSWVRQAPGKGLEWVGRIKSKTDGGTTDYAAPVQGRFTISRDDSKNTLYLQMNSLKTEDTAVYYCTIFGVVSFDYWGQGTLVTVSS
VL: DVQMTQSPSSLSASVGDRVTITCRASQSISDYLSWYQQRPGKAPNLLIYAASNLKTGVPSRFSGSGSGTDFTLTISTLQPEDFATYYCQQSYRSPWTFGQGTKVEIKR
notes: detected with anti-human IgG in the microarray; also called antibody LY75_A1; LY75_A1 monoclonal antibody
binding result [1]: binds
binding result (RHFVSLCQ): no binding (tested: 1 µg/mL)
binding result (SLCQKYSE): no binding (tested: 1 µg/mL)
binding result (LCQKYSEV): no binding (tested: 1 µg/mL)
binding result (CQKYSEVK): no binding (tested: 1 µg/mL)
binding result (QKYSEVKS): no binding (tested: 1 µg/mL)
binding result (NLYKIIPK): no binding (tested: 1 µg/mL)
binding result (KIIPKTLT): no binding (tested: 1 µg/mL)
binding result (IIPKTLTW): no binding (tested: 1 µg/mL)
binding result (PKTLTWHS): no binding (tested: 1 µg/mL)
binding result (KTLTWHSA): no binding (tested: 1 µg/mL)
average signal for all spots on the array (signal intensity (scale 1-65535)) [2]: 885
binding result [3]: binds
binding result [4]: binds
binding result [5]: binds
binding result [6]: binds
binding result [7]: binds
maximum signal (signal intensity (scale 1-65535)) [8]: 25000
binding result (YFHQHSIL): binds
binding result (KGHCYKSD): binds
binding result [9]: binds
